In experiment [1] the target is recombinant human melanocortin-4 receptor (hMCR-4) in membrane homogenates of HEK-293 cells (human) (UniProt P32245). In words: competitive inhibition of [I125]-NDP-alpha-MSH, hMCR-4 HEK-293 membranes.
In experiment [2] the target is recombinant human melanocortin-1 receptor (hMCR-1a) in membrane homogenates of HEK-293 cells (human) (UniProt Q01726). In words: competitive inhibition of [I125]-NDP-alpha-MSH, hMCR-1 HEK-293 membranes.

[ ]: non-standard residue; d: D form. Nle = CCCC[C@H](N)C(=O)O; Orn = NCCC[C@H](N)C(=O)O; Dab = NCC[C@H](N)C(=O)O; Sar = CNCC(=O)O

recombinant human melanocortin-1 receptor (hMCR-1a) in membrane homogenates of HEK-293 cells (human), sequence (Q01726 whole entry): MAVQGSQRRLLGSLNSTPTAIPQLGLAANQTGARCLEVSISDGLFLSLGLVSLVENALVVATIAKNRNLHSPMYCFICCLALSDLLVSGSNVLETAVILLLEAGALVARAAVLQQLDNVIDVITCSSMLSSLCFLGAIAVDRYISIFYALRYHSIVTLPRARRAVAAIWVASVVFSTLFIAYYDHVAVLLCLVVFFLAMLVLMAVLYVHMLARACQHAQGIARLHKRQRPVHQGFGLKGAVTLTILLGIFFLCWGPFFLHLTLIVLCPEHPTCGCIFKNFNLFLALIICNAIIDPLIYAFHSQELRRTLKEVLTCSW
recombinant human melanocortin-4 receptor (hMCR-4) in membrane homogenates of HEK-293 cells (human), sequence (P32245 whole entry): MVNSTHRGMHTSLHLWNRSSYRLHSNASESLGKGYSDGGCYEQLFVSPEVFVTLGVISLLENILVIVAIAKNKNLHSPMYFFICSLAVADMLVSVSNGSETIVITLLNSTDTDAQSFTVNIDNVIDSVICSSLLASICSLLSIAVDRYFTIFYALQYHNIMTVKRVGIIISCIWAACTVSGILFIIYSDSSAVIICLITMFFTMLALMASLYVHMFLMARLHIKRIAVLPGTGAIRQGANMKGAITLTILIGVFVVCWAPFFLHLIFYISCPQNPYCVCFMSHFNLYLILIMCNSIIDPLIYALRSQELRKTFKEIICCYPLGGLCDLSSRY

B1: Ac-Nle-Ala-Orn-D-Phe-Arg-Ala-Trp-NH2 (peptide)
peptide: Ac-[Nle]A[Orn][dF]RAW-NH2
SMILES: CCCC[C@H](NC(C)=O)C(=O)N[C@@H](C)C(=O)N[C@@H](CCCN)C(=O)N[C@H](Cc1ccccc1)C(=O)N[C@@H](CCCNC(=N)N)C(=O)N[C@@H](C)C(=O)N[C@@H](Cc1c[nH]c2ccccc12)C(N)=O
Turning to B1, the Ki in experiment [1] is 7580 nM; in experiment [2], 0.3 nM.

B2: Ac-Nle-Ala-His-D-Phe-Arg-D-Pro-Trp-NH2 (peptide)
peptide: Ac-[Nle]AH[dF]R[dP]W-NH2
SMILES: CCCC[C@H](NC(C)=O)C(=O)N[C@@H](C)C(=O)N[C@@H](Cc1c[nH]cn1)C(=O)N[C@H](Cc1ccccc1)C(=O)N[C@@H](CCCNC(=N)N)C(=O)N1CCC[C@@H]1C(=O)N[C@@H](Cc1c[nH]c2ccccc12)C(N)=O
Take B2: the inhibition constant Ki turned out to be 6200 nM in experiment [1] and 14 nM in experiment [2].

B3: Ac-Nle-Ala-His-D-Phe-Arg-Sar-Trp-NH2 (peptide)
peptide: Ac-[Nle]AH[dF]R[Sar]W-NH2
SMILES: CCCC[C@H](NC(C)=O)C(=O)N[C@@H](C)C(=O)N[C@@H](Cc1c[nH]cn1)C(=O)N[C@H](Cc1ccccc1)C(=O)N[C@@H](CCCNC(=N)N)C(=O)N(C)CC(=O)N[C@@H](Cc1c[nH]c2ccccc12)C(N)=O
B3: the inhibitory constant (Ki) in experiment [1] amounted to 870 nM; in experiment [2], 2 nM.

B4: Ac-Nle-Ala-Dab-D-Phe-Arg-Ala-Trp-NH2 (peptide)
peptide: Ac-[Nle]A[Dab][dF]RAW-NH2
SMILES: CCCC[C@H](NC(C)=O)C(=O)N[C@@H](C)C(=O)N[C@@H](CCN)C(=O)N[C@H](Cc1ccccc1)C(=O)N[C@@H](CCCNC(=N)N)C(=O)N[C@@H](C)C(=O)N[C@@H](Cc1c[nH]c2ccccc12)C(N)=O
Take B4: the figures for the Ki in experiment [1] and in experiment [2] were 7850 nM and 2 nM, respectively.

B5: Ac-Nle-Ala-His-D-Phe-Arg-Ala-D-Trp-NH2 (peptide)
peptide: Ac-[Nle]AH[dF]RA[dW]-NH2
SMILES: CCCC[C@H](NC(C)=O)C(=O)N[C@@H](C)C(=O)N[C@@H](Cc1c[nH]cn1)C(=O)N[C@H](Cc1ccccc1)C(=O)N[C@@H](CCCNC(=N)N)C(=O)N[C@@H](C)C(=O)N[C@H](Cc1c[nH]c2ccccc12)C(N)=O
Turning to B5, the inhibition constant (Ki) in experiment [1] is 215 nM; in experiment [2], 7 nM.

B6: Ac-Nle-Ala-His-D-Phe-Arg-Pro-D-Trp-NH2 (peptide)
peptide: Ac-[Nle]AH[dF]RP[dW]-NH2
SMILES: CCCC[C@H](NC(C)=O)C(=O)N[C@@H](C)C(=O)N[C@@H](Cc1c[nH]cn1)C(=O)N[C@H](Cc1ccccc1)C(=O)N[C@@H](CCCNC(=N)N)C(=O)N1CCC[C@H]1C(=O)N[C@H](Cc1c[nH]c2ccccc12)C(N)=O
Regarding B6, the Ki amounted to 650 nM in experiment [1] and 2 nM in experiment [2].

(Values after patent publication US20150119341A1.)
